Data taken from article doi:10.1101/2021.07.09.451618.

Biological target: F-actin, rabbit skeletal muscle (rabbit) (UniProt P68135)

Substance | kcat: extrapolated maximum catalytic rate of the actin-activated ATPase
M15-2IQ : ELC : RLC complex (1:1:1), jordan (p.D1647G) MYO15 motor domain (from UniProt P60661 1-151) | 0.87 s⁻¹
M15-2IQ : ELC : RLC complex (1:1:1), wild-type MYO15 motor domain (from UniProt P60661 1-151) | 5.8 s⁻¹
